Molecular target: H-2K^b class I-determinants expressed on LM fibroblasts transduced with pBR327H-2K^b (mouse) (UniProt P01901)
Assay: flow cytometry staining of LM cells transduced with pBR327H-2K^b, control staining

UniProt P01901, sequence (P01901 22-369): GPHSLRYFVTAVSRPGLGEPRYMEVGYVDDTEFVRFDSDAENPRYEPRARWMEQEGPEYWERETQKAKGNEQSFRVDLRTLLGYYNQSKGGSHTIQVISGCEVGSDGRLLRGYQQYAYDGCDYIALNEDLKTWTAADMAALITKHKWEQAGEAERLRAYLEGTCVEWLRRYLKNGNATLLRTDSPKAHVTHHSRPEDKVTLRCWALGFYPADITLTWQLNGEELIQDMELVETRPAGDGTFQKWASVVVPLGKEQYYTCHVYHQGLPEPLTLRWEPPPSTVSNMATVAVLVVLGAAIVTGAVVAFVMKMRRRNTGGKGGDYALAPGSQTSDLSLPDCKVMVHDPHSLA

mean fluorescence index (MFI): 0.3
Substance: isotope control sera (antibody)

Source: patent US20110014241A1
